Measured values: the supplement of paper PMC9112550, “Optimization of the antimicrobial peptide Bac7 by deep mutational scanning” (BMC Biology, 2022)

System: Escherichia coli TOP10
Assay: shrunken log2 fold change of peptide-encoding DNA abundance (4.5 h post-induction vs induction); higher = less antimicrobial activity (less host growth inhibition)
Details: time post-induction: 4.5 h; library: site-saturation at positions 5, 18, 19, 20
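Also: peptides expressed intracellularly from a pBAD plasmid library in pooled LB shake-flask culture, induced with 0.3% L-arabinose, DNA abundance read by NGS, three biological replicates, DESeq2 with apeglm shrinkage.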

With RRIRWRPPRLPRPRPRPTTAPRP the “shrunken log2 fold change” value was 0.432.
For RRIRIRPPRLPRPRPRPTPTPRP, the “shrunken log2 fold change” value was 0.387.
For RRIRCRPPRLPRPRPRPNSFPRP, the “shrunken log2 fold change” value was -0.58.
RRIRARPPRLPRPRPRPNDAPRP was tested, and the “shrunken log2 fold change” value was -0.0891.
In the case of RRIRMRPPRLPRPRPRPTTSPRP, the “shrunken log2 fold change” value is reported as 0.499.
RRIRIRPPRLPRPRPRPDSSPRP was tested, and the “shrunken log2 fold change” value was -0.318.
In the case of RRIRQRPPRLPRPRPRPLFEPRP, the “shrunken log2 fold change” value is reported as 0.0725.
In the case of RRIRHRPPRLPRPRPRPPHGPRP, the “shrunken log2 fold change” value is reported as 0.389.
With RRIRFRPPRLPRPRPRPTWLPRP the “shrunken log2 fold change” value was 0.299.
RRIRHRPPRLPRPRPRPLVRPRP was tested, and the “shrunken log2 fold change” value was -0.103.
In the case of RRIRNRPPRLPRPRPRPNQDPRP, the “shrunken log2 fold change” value is reported as -0.251.
RRIRKRPPRLPRPRPRPRGDPRP was tested, and the “shrunken log2 fold change” value was 0.396.
With RRIRMRPPRLPRPRPRPMLCPRP the “shrunken log2 fold change” value was 0.049.
In the case of RRIRYRPPRLPRPRPRPGYRPRP, the “shrunken log2 fold change” value is reported as -0.46.
For RRIRMRPPRLPRPRPRPEHHPRP, the “shrunken log2 fold change” value was 0.323.
RRIRFRPPRLPRPRPRPYGIPRP was tested, and the “shrunken log2 fold change” value was -0.00674.
For RRIRIRPPRLPRPRPRPYAYPRP, the “shrunken log2 fold change” value was -0.0284.
RRIRQRPPRLPRPRPRPRNSPRP was tested, and the “shrunken log2 fold change” value was -0.0108.
In the case of RRIRTRPPRLPRPRPRPMKQPRP, the “shrunken log2 fold change” value is reported as -0.0631.
RRIRGRPPRLPRPRPRPKPAPRP was tested, and the “shrunken log2 fold change” value was 1.42.
For RRIRVRPPRLPRPRPRPQRRPRP, the “shrunken log2 fold change” value was 0.0241.
In the case of RRIRCRPPRLPRPRPRPHDEPRP, the “shrunken log2 fold change” value is reported as -0.0201.
For RRIRGRPPRLPRPRPRPQIQPRP, the “shrunken log2 fold change” value was 0.0796.
In the case of RRIRMRPPRLPRPRPRPIATPRP, the “shrunken log2 fold change” value is reported as -0.0165.
For RRIRDRPPRLPRPRPRPRQLPRP, the “shrunken log2 fold change” value was 0.185.
For RRIRSRPPRLPRPRPRPNERPRP, the “shrunken log2 fold change” value was -0.395.
RRIRCRPPRLPRPRPRPHYPPRP was tested, and the “shrunken log2 fold change” value was -0.902.
For RRIRPRPPRLPRPRPRPDGTPRP, the “shrunken log2 fold change” value was -0.122.
In the case of RRIRVRPPRLPRPRPRPVYYPRP, the “shrunken log2 fold change” value is reported as -0.696.
With RRIRNRPPRLPRPRPRPTFKPRP the “shrunken log2 fold change” value was -0.175.
RRIRIRPPRLPRPRPRPLNKPRP was tested, and the “shrunken log2 fold change” value was -0.398.
With RRIRCRPPRLPRPRPRPGVKPRP the “shrunken log2 fold change” value was -0.0157.
RRIRFRPPRLPRPRPRPVAFPRP was tested, and the “shrunken log2 fold change” value was -0.141.
For RRIRTRPPRLPRPRPRPMIQPRP, the “shrunken log2 fold change” value was -0.146.
With RRIRDRPPRLPRPRPRPKHTPRP the “shrunken log2 fold change” value was 0.136.
In the case of RRIRNRPPRLPRPRPRPVMTPRP, the “shrunken log2 fold change” value is reported as 0.0556.
In the case of RRIRNRPPRLPRPRPRPLGKPRP, the “shrunken log2 fold change” value is reported as -0.299.
For RRIRVRPPRLPRPRPRPHEQPRP, the “shrunken log2 fold change” value was -0.163.
In the case of RRIRKRPPRLPRPRPRPSGNPRP, the “shrunken log2 fold change” value is reported as 0.267.
For RRIRARPPRLPRPRPRPEEGPRP, the “shrunken log2 fold change” value was 0.457.
With RRIRGRPPRLPRPRPRPQQEPRP the “shrunken log2 fold change” value was 0.0132.
With RRIRDRPPRLPRPRPRPVVPPRP the “shrunken log2 fold change” value was 0.0405.
In the case of RRIRKRPPRLPRPRPRPAHDPRP, the “shrunken log2 fold change” value is reported as 0.536.
With RRIRSRPPRLPRPRPRPVVNPRP the “shrunken log2 fold change” value was 0.0966.
With RRIRLRPPRLPRPRPRPNYRPRP the “shrunken log2 fold change” value was -0.571.
With RRIRPRPPRLPRPRPRPFEEPRP the “shrunken log2 fold change” value was -0.00852.
RRIRVRPPRLPRPRPRPLTEPRP was tested, and the “shrunken log2 fold change” value was -0.503.
RRIRTRPPRLPRPRPRPTGWPRP was tested, and the “shrunken log2 fold change” value was 0.511.
For RRIRQRPPRLPRPRPRPAMHPRP, the “shrunken log2 fold change” value was -0.125.
For RRIRCRPPRLPRPRPRPNAHPRP, the “shrunken log2 fold change” value was -0.221.
With RRIRFRPPRLPRPRPRPSYDPRP the “shrunken log2 fold change” value was -0.0248.
With RRIRRRPPRLPRPRPRPYNGPRP the “shrunken log2 fold change” value was -0.0173.
In the case of RRIRERPPRLPRPRPRPPREPRP, the “shrunken log2 fold change” value is reported as 0.87.
In the case of RRIRLRPPRLPRPRPRPRRNPRP, the “shrunken log2 fold change” value is reported as 0.0956.
RRIRQRPPRLPRPRPRPCNTPRP was tested, and the “shrunken log2 fold change” value was -0.257.
In the case of RRIRMRPPRLPRPRPRPITRPRP, the “shrunken log2 fold change” value is reported as 0.248.
With RRIRYRPPRLPRPRPRPVKQPRP the “shrunken log2 fold change” value was -0.00131.
For RRIRPRPPRLPRPRPRPEDSPRP, the “shrunken log2 fold change” value was 0.159.
In the case of RRIRLRPPRLPRPRPRPYYMPRP, the “shrunken log2 fold change” value is reported as -0.671.
With RRIRTRPPRLPRPRPRPYTRPRP the “shrunken log2 fold change” value was -0.0177.
For RRIRARPPRLPRPRPRPNPEPRP, the “shrunken log2 fold change” value was 0.0539.
In the case of RRIRDRPPRLPRPRPRPVCCPRP, the “shrunken log2 fold change” value is reported as 0.967.
In the case of RRIRPRPPRLPRPRPRPCLSPRP, the “shrunken log2 fold change” value is reported as -0.143.
In the case of RRIRLRPPRLPRPRPRPSCSPRP, the “shrunken log2 fold change” value is reported as -0.527.
In the case of RRIRRRPPRLPRPRPRPFMYPRP, the “shrunken log2 fold change” value is reported as -0.174.
For RRIRMRPPRLPRPRPRPLGEPRP, the “shrunken log2 fold change” value was 0.317.
RRIRDRPPRLPRPRPRPGKNPRP was tested, and the “shrunken log2 fold change” value was -0.543.
In the case of RRIRNRPPRLPRPRPRPKQMPRP, the “shrunken log2 fold change” value is reported as 0.267.
In the case of RRIRRRPPRLPRPRPRPDEMPRP, the “shrunken log2 fold change” value is reported as 0.753.
With RRIRARPPRLPRPRPRPKRIPRP the “shrunken log2 fold change” value was 0.122.
For RRIRCRPPRLPRPRPRPNGNPRP, the “shrunken log2 fold change” value was -0.288.
In the case of RRIRQRPPRLPRPRPRPIPAPRP, the “shrunken log2 fold change” value is reported as 0.214.
In the case of RRIRPRPPRLPRPRPRPGFHPRP, the “shrunken log2 fold change” value is reported as -0.0164.
With RRIRLRPPRLPRPRPRPMSTPRP the “shrunken log2 fold change” value was -0.302.
With RRIRERPPRLPRPRPRPPPNPRP the “shrunken log2 fold change” value was 0.451.
With RRIRFRPPRLPRPRPRPEDSPRP the “shrunken log2 fold change” value was -0.00878.
In the case of RRIRHRPPRLPRPRPRPTDCPRP, the “shrunken log2 fold change” value is reported as 0.038.
For RRIRFRPPRLPRPRPRPLTHPRP, the “shrunken log2 fold change” value was -0.0881.
In the case of RRIRMRPPRLPRPRPRPQQTPRP, the “shrunken log2 fold change” value is reported as 1.14.
For RRIRKRPPRLPRPRPRPSCMPRP, the “shrunken log2 fold change” value was -0.0405.
RRIRYRPPRLPRPRPRPNMRPRP was tested, and the “shrunken log2 fold change” value was 0.117.
In the case of RRIRYRPPRLPRPRPRPEAFPRP, the “shrunken log2 fold change” value is reported as -0.00226.
With RRIRCRPPRLPRPRPRPMWYPRP the “shrunken log2 fold change” value was -0.414.
RRIRVRPPRLPRPRPRPYKCPRP was tested, and the “shrunken log2 fold change” value was -0.0495.
With RRIRIRPPRLPRPRPRPYSFPRP the “shrunken log2 fold change” value was -0.307.
In the case of RRIRHRPPRLPRPRPRPLHAPRP, the “shrunken log2 fold change” value is reported as 0.297.
For RRIRVRPPRLPRPRPRPHWTPRP, the “shrunken log2 fold change” value was -0.045.
RRIRQRPPRLPRPRPRPLWYPRP was tested, and the “shrunken log2 fold change” value was -0.367.
With RRIRRRPPRLPRPRPRPEMPPRP the “shrunken log2 fold change” value was 0.207.
For RRIRFRPPRLPRPRPRPIRIPRP, the “shrunken log2 fold change” value was -0.223.
With RRIRERPPRLPRPRPRPKRPPRP the “shrunken log2 fold change” value was 0.194.
With RRIRSRPPRLPRPRPRPFDKPRP the “shrunken log2 fold change” value was -0.232.
RRIRYRPPRLPRPRPRPPVKPRP was tested, and the “shrunken log2 fold change” value was -0.102.
For RRIRQRPPRLPRPRPRPSGWPRP, the “shrunken log2 fold change” value was -0.112.
In the case of RRIRHRPPRLPRPRPRPGIVPRP, the “shrunken log2 fold change” value is reported as -0.286.
In the case of RRIRYRPPRLPRPRPRPEMEPRP, the “shrunken log2 fold change” value is reported as -0.0352.
For RRIRHRPPRLPRPRPRPSLWPRP, the “shrunken log2 fold change” value was 0.257.
With RRIRIRPPRLPRPRPRPHCNPRP the “shrunken log2 fold change” value was -0.784.
With RRIRIRPPRLPRPRPRPVDAPRP the “shrunken log2 fold change” value was -0.0281.
In the case of RRIRFRPPRLPRPRPRPAMNPRP, the “shrunken log2 fold change” value is reported as -0.102.
For RRIRMRPPRLPRPRPRPKCDPRP, the “shrunken log2 fold change” value was 0.318.
With RRIRQRPPRLPRPRPRPEFHPRP the “shrunken log2 fold change” value was -0.0296.
For RRIRHRPPRLPRPRPRPLIDPRP, the “shrunken log2 fold change” value was -0.408.
With RRIRWRPPRLPRPRPRPYVFPRP the “shrunken log2 fold change” value was -0.142.
With RRIRCRPPRLPRPRPRPKDDPRP the “shrunken log2 fold change” value was 0.146.
For RRIRQRPPRLPRPRPRPKPIPRP, the “shrunken log2 fold change” value was -0.112.
With RRIRFRPPRLPRPRPRPIMSPRP the “shrunken log2 fold change” value was -0.0555.
With RRIRCRPPRLPRPRPRPQFRPRP the “shrunken log2 fold change” value was -0.434.
RRIRGRPPRLPRPRPRPNHKPRP was tested, and the “shrunken log2 fold change” value was -0.195.
For RRIRERPPRLPRPRPRPQWAPRP, the “shrunken log2 fold change” value was -0.0475.
RRIRFRPPRLPRPRPRPGLGPRP was tested, and the “shrunken log2 fold change” value was 0.603.
RRIRMRPPRLPRPRPRPYKSPRP was tested, and the “shrunken log2 fold change” value was -0.215.
For RRIRCRPPRLPRPRPRPCVQPRP, the “shrunken log2 fold change” value was -0.153.
In the case of RRIRDRPPRLPRPRPRPMSEPRP, the “shrunken log2 fold change” value is reported as -0.00582.
For RRIRDRPPRLPRPRPRPHPNPRP, the “shrunken log2 fold change” value was -0.662.
RRIRARPPRLPRPRPRPSAHPRP was tested, and the “shrunken log2 fold change” value was 0.101.
For RRIRPRPPRLPRPRPRPFAYPRP, the “shrunken log2 fold change” value was -0.135.
RRIRYRPPRLPRPRPRPSEVPRP was tested, and the “shrunken log2 fold change” value was -0.177.
For RRIRTRPPRLPRPRPRPELGPRP, the “shrunken log2 fold change” value was 0.248.
For RRIRSRPPRLPRPRPRPMRIPRP, the “shrunken log2 fold change” value was 0.0732.
For RRIRYRPPRLPRPRPRPRDTPRP, the “shrunken log2 fold change” value was -0.378.
With RRIRRRPPRLPRPRPRPWPSPRP the “shrunken log2 fold change” value was 0.0392.
In the case of RRIRKRPPRLPRPRPRPNHNPRP, the “shrunken log2 fold change” value is reported as -0.382.
For RRIRHRPPRLPRPRPRPRILPRP, the “shrunken log2 fold change” value was 0.091.
RRIRQRPPRLPRPRPRPFSSPRP was tested, and the “shrunken log2 fold change” value was -0.0951.
